Reference: the supplement of paper PMC9112550, “Optimization of the antimicrobial peptide Bac7 by deep mutational scanning” (BMC Biology, 2022)

tested on: Escherichia coli TOP10; experiment: shrunken log2 fold change of peptide-encoding DNA abundance (4.5 h post-induction vs induction); higher = less antimicrobial activity (less host growth inhibition); conditions: time post-induction: 4.5 h; library: site-saturation at positions 5, 18, 19, 20
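Note: peptides expressed intracellularly from a pBAD plasmid library in pooled LB shake-flask culture, induced with 0.3% L-arabinose, DNA abundance read by NGS, three biological replicates, DESeq2 with apeglm shrinkage.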

Point of comparison: RRIRYRPPRLPRPRPRPPHPPRP, “shrunken log2 fold change” value -0.187. Against it:
- RRIRMRPPRLPRPRPRPEYCPRP — higher, 0.0929
- RRIRERPPRLPRPRPRPWNGPRP — higher, 0.208
- RRIRSRPPRLPRPRPRPVVHPRP — within 0.2 log units, -0.126
- RRIRSRPPRLPRPRPRPKWIPRP — lower, -0.553
- RRIRKRPPRLPRPRPRPKSGPRP — higher, 0.0187
- RRIRFRPPRLPRPRPRPIFKPRP — within 0.2 log units, -0.153
- RRIRKRPPRLPRPRPRPAVNPRP — within 0.2 log units, -0.0383
- RRIRHRPPRLPRPRPRPFQDPRP — higher, 0.0239
- RRIRWRPPRLPRPRPRPTIMPRP — within 0.2 log units, -0.0533
- RRIRARPPRLPRPRPRPDQSPRP — higher, 0.113
- RRIRWRPPRLPRPRPRPCYQPRP — within 0.2 log units, 0.0103
- RRIRRRPPRLPRPRPRPRPAPRP — higher, 1.83
- RRIRMRPPRLPRPRPRPGYNPRP — within 0.2 log units, -0.282
- RRIRCRPPRLPRPRPRPRLPPRP — higher, 0.382
- RRIRLRPPRLPRPRPRPVPEPRP — higher, 0.161
- RRIRIRPPRLPRPRPRPTHRPRP — within 0.2 log units, -0.322
- RRIRLRPPRLPRPRPRPDLGPRP — within 0.2 log units, -0.0612
- RRIRRRPPRLPRPRPRPCKQPRP — within 0.2 log units, -0.0474
- RRIRKRPPRLPRPRPRPFGNPRP — within 0.2 log units, -0.171
- RRIRWRPPRLPRPRPRPETKPRP — higher, 0.285
- RRIRVRPPRLPRPRPRPAVYPRP — within 0.2 log units, -0.161
- RRIRHRPPRLPRPRPRPDSEPRP — within 0.2 log units, -0.0112
- RRIRIRPPRLPRPRPRPAPDPRP — higher, 0.248
- RRIRLRPPRLPRPRPRPLYGPRP — within 0.2 log units, -0.249
- RRIRVRPPRLPRPRPRPYKSPRP — lower, -0.492
- RRIRTRPPRLPRPRPRPVHSPRP — within 0.2 log units, -0.0193
- RRIRTRPPRLPRPRPRPDYMPRP — lower, -0.687
- RRIRIRPPRLPRPRPRPHNEPRP — lower, -1.35
- RRIRTRPPRLPRPRPRPSFEPRP — within 0.2 log units, -0.328
- RRIRPRPPRLPRPRPRPYVLPRP — lower, -0.519
- RRIRQRPPRLPRPRPRPGNFPRP — higher, 0.0262
- RRIRWRPPRLPRPRPRPFRKPRP — within 0.2 log units, -0.351
- RRIRRRPPRLPRPRPRPESDPRP — higher, 0.6
- RRIRSRPPRLPRPRPRPMWWPRP — higher, 0.551
- RRIRVRPPRLPRPRPRPWHGPRP — within 0.2 log units, -0.121
- RRIRERPPRLPRPRPRPVLKPRP — higher, 0.0458
- RRIRFRPPRLPRPRPRPPNLPRP — within 0.2 log units, -0.0642
- RRIRNRPPRLPRPRPRPWCCPRP — within 0.2 log units, 0.007
- RRIRRRPPRLPRPRPRPSMFPRP — within 0.2 log units, -0.0509
- RRIRERPPRLPRPRPRPVTLPRP — within 0.2 log units, -0.289
- RRIRGRPPRLPRPRPRPNKEPRP — within 0.2 log units, -0.00663
- RRIRTRPPRLPRPRPRPHYNPRP — lower, -0.75
- RRIRYRPPRLPRPRPRPVPEPRP — within 0.2 log units, -0.294
- RRIRDRPPRLPRPRPRPHHYPRP — within 0.2 log units, -0.0954
- RRIRFRPPRLPRPRPRPWVCPRP — higher, 0.029
- RRIRIRPPRLPRPRPRPVCLPRP — within 0.2 log units, -0.369
- RRIRSRPPRLPRPRPRPSCFPRP — within 0.2 log units, -0.197
- RRIRRRPPRLPRPRPRPQNRPRP — higher, 0.318
- RRIRFRPPRLPRPRPRPRDHPRP — higher, 0.015
- RRIRFRPPRLPRPRPRPGMFPRP — higher, 0.0382
- RRIRARPPRLPRPRPRPHHGPRP — within 0.2 log units, -0.122
- RRIRFRPPRLPRPRPRPKSEPRP — within 0.2 log units, -0.213
- RRIRWRPPRLPRPRPRPATCPRP — higher, 0.275
- RRIRNRPPRLPRPRPRPAPDPRP — higher, 0.147
- RRIRERPPRLPRPRPRPIYEPRP — within 0.2 log units, -0.236
- RRIRVRPPRLPRPRPRPIADPRP — higher, 0.0367
- RRIRHRPPRLPRPRPRPSYNPRP — lower, -0.86
- RRIRNRPPRLPRPRPRPVCAPRP — higher, 0.559
- RRIRLRPPRLPRPRPRPNYSPRP — lower, -0.718
